This is an account of results in publication PMC11139282, “Structure and activity of the septal peptidoglycan hydrolysis machinery crucial for bacterial cell division” (PLOS Biology, 2024).

Data set [1] concerns the molecule itself. The data set is described as follows: cryo-EM structure; ATP-bound FtsE^E163QX^Δ4-18-EnvC(35-420) reconstituted in PMAL-C8, about 1 mg/ml, 3.11 Å.
The target of data set [2] is T1, EnvC_(35-420) (E. coli K-12, UniProt P37690 35-419).
T1 construct: Only part of the coiled-coil domain is modelled in the cryo-EM structure; also called ecEnvC; source: E. coli C43(DE3), purified (Ni-NTA, SEC, TEV, Ni-NTA, SEC); not shown: His8, N-terminal, cleaved; SUMO, N-terminal, cleaved; Strep tag II, C-terminal, kept
T1 sequence (looked up): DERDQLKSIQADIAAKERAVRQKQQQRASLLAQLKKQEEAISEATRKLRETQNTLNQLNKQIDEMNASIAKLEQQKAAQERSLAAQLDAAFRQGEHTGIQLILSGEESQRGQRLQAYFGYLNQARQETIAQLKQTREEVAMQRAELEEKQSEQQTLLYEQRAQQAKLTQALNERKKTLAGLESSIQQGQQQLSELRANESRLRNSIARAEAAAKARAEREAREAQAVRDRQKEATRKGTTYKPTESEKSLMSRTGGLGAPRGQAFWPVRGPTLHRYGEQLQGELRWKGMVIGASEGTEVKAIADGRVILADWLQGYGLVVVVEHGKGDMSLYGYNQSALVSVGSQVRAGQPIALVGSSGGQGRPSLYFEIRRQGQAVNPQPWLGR
The description is as above. Particulars: both partners purified.

Data set [3] concerns the target T1, EnvC_(35-420). Briefly: pull-down + SEC; purified FtsE^E163QX or FtsX incubated with EnvC(35-420)-Strep at a molar ratio of 1:1.5, moved into PMAL-C8; Strep column to remove unbound FtsEX or FtsX, then Superdex 200 in 20 mM Tris pH 8.0, 300 mM NaCl (1 mM ATP for FtsE^E163QX); peak validated by SDS-PAGE. The following applies: both partners purified.

B1: FtsE^E163Q (natural protein, E. coli K-12, UniProt P0A9R7 1-222, looked up)
chain: MIRFEHVSKAYLGGRQALQGVTFHMQPGEMAFLTGHSGAGKSTLLKLICGIERPSAGKIWFSGHDITRLKNREVPFLRRQIGMIFQDHHLLMDRTVYDNVAIPLIIAGASGDDIRRRVSAALDKVGLLDKAKNFPIQLSGGEQQRVGIARAVVNKPAVLLADQPTGNLDDALSEGILRLFEEFNRVGVTVLMATHDINLISRRSYRMLTLSDGHLHGGVGHE
notes: The pSUMO plasmid adds an N-terminal His8-SUMO-TEV site, removed by TEV; Two copies stand in the FtsEX complex; also called ecFtsE^E163Q; not shown: His8 (chain inferred: first gene of pSUMO-ftsEX), N-terminal, cleaved; SUMO (chain inferred: first gene of pSUMO-ftsEX), N-terminal, cleaved
In the case of B1, in data set [1], the binding result was “binds”.

B2: FtsX^Δ4–18 (natural protein, E. coli K-12, UniProt P0AC30 1-352, looked up)
chain: MNKRFRKSVGGSGDGGRNAPKRAKSSPKPVNRKTNVFNEQVRYAFHGALQDLKSKPFATFLTVMVIAISLTLPSVCYMVYKNVNQAATQYYPSPQITVYLQKTLDDDAAAGVVAQLQAEQGVEKVNYLSREDALGEFRNWSGFGGALDMLEENPLPAVAVVIPKLDFQGTESLNTLRDRITQINGIDEVRMDDSWFARLAALTGLVGRVSAMIGVLMVAAVFLVIGNSVRLSIFARRDSINVQKLIGATDGFILRPFLYGGALLGFSGALLSLILSEILVLRLSSAVAEVAQVFGTKFDINGLSFDECLLLLLVCSMIGWVAAWLATVQHLRHFTPE
notes: FtsX, E. coli K-12, with residues 4-18 deleted; The results call the cryo-EM sample FtsE^E163QX; the methods say that the grids held FtsE^E163QX^Δ4-18; also called ecFtsX
Turning to B2, the binding result (in data set [1]; with EnvC_(35-420) [2]) was “binds” in each case.

B3: FtsX (purified alone) (natural protein, E. coli K-12, UniProt P0AC30 1-352, looked up)
chain: MNKRDAINHIRQFGGRLDRFRKSVGGSGDGGRNAPKRAKSSPKPVNRKTNVFNEQVRYAFHGALQDLKSKPFATFLTVMVIAISLTLPSVCYMVYKNVNQAATQYYPSPQITVYLQKTLDDDAAAGVVAQLQAEQGVEKVNYLSREDALGEFRNWSGFGGALDMLEENPLPAVAVVIPKLDFQGTESLNTLRDRITQINGIDEVRMDDSWFARLAALTGLVGRVSAMIGVLMVAAVFLVIGNSVRLSIFARRDSINVQKLIGATDGFILRPFLYGGALLGFSGALLSLILSEILVLRLSSAVAEVAQVFGTKFDINGLSFDECLLLLLVCSMIGWVAAWLATVQHLRHFTPE
notes: FtsX, E. coli K-12; The plasmid section describes pET28a-ftsX (N-terminal 8xHis); the purification section names pSUMO-ftsX (His8-SUMO), tag not removed; Whether SUMO stood on the protein is open; not shown: His8, N-terminal, kept
Regarding B3, in the data set with EnvC_(35-420) [3], the binding result is listed as “binds”.
